Test results taken from patent US20150197558A1 (published 2015).

Key:
[1] = target: T1, IHF from Klebsiella pneumoniae (Klebsiella pneumoniae, UniProt A6TAI1 1-99); assay: ELISA
T1 construct: also called IHF (Kp); K. pneumoniae
T1 sequence: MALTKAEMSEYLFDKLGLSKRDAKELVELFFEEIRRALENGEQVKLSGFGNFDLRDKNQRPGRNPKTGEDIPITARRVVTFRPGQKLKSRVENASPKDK

[2] = target: T2, IHF from Pseudomonas aeruginosa (Pseudomonas aeruginosa, UniProt Q51472 2-100); assay: ELISA
T2 construct: also called IHF (Pa); P. aeruginosa; not shown: poly-histidine tag
T2 sequence: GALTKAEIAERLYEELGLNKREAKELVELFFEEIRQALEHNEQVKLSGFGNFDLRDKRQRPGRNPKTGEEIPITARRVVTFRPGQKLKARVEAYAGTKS

[3] = target: T3, IHF from Haemophilus influenzae (Haemophilus influenzae, UniProt P43723 1-96); assay: ELISA
T3 construct: also called IHF (Hi); H. influenzae; not shown: poly-histidine tag
T3 sequence: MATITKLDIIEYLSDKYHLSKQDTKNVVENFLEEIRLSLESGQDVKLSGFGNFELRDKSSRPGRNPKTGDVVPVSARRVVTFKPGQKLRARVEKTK

[4] = target: T4, IHF from Staphylococcus aureus (Staphylococcus aureus, UniProt Q5HFV0 1-90); assay: ELISA
T4 construct: also called IHF (Sa); HU; not shown: poly-histidine tag
T4 sequence: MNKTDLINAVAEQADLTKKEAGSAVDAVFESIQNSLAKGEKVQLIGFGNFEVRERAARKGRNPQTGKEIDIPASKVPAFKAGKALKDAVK

[5] = target: T4, IHF from Staphylococcus aureus; assay: ELISA, antigen coated, half-maximal binding concentration printed as Affinity (pM)
[6] = target: T5, IHF from Acinetobacter baumannii (Acinetobacter baumannii, UniProt A3M2B0 1-98); assay: as above
T5 construct: also called Ab
T5 sequence: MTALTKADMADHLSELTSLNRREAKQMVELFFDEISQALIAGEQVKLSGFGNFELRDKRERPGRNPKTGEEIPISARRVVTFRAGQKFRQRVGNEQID

[7] = target: T1, IHF from Klebsiella pneumoniae; assay: ELISA, antigen coated
[8] = target: T2, IHF from Pseudomonas aeruginosa; assay: ELISA, antigen coated
[9] = target: T3, IHF from Haemophilus influenzae; assay: ELISA, antigen coated
[10] = target: T5, IHF from Acinetobacter baumannii; assay: ELISA, antigen coated
[11] = target: peptide 19 of the set of overlapping 15-mer peptides from the IHF of Staphylococcus aureus (Staphylococcus aureus); assay: peptide binding on streptavidin plates
[12] = target: peptide 26 of the set of overlapping 15-mer peptides from the IHF of Staphylococcus aureus (Staphylococcus aureus); assay: peptide binding on streptavidin plates
[13] = target: peptide 20 of the set of overlapping 15-mer peptides from the IHF of Staphylococcus aureus (Staphylococcus aureus); assay: peptide binding on streptavidin plates
[14] = target: IHF target of the pH table of Example 7 (homolog not stated); assay: pH dependence of binding, pH 2.5; ELISA per legend of FIGS. 6A-6B
[15] = target: T1, IHF from Klebsiella pneumoniae; assay: BLI, ForteBio Octet QK, ratio of on and off rates
[16] = target: T4, IHF from Staphylococcus aureus; assay: BLI, ForteBio Octet QK, ratio of on and off rates
[17] = target: T2, IHF from Pseudomonas aeruginosa; assay: BLI, ForteBio Octet QK, ratio of on and off rates
[18] = target: T3, IHF from Haemophilus influenzae; assay: BLI, ForteBio Octet QK, ratio of on and off rates
[19] = target: T1, IHF from Klebsiella pneumoniae; assay: ELISA, antigen coated, half-maximal binding concentration printed as Affinity (pM)
[20] = target: T2, IHF from Pseudomonas aeruginosa; assay: as above
[21] = target: T3, IHF from Haemophilus influenzae; assay: as above
[22] = target: IHF target of the pH table of Example 7 (homolog not stated); assay: pH dependence of binding, pH 4.5; ELISA per legend of FIGS. 6A-6B
[23] = target: IHF target of the pH table of Example 7 (homolog not stated); assay: pH dependence of binding, pH 3.5; ELISA per legend of FIGS. 6A-6B
[24] = target: IHF target of the pH table of Example 7 (homolog not stated); assay: pH dependence of binding, pH 7.5; ELISA per legend of FIGS. 6A-6B
[25] = target: IHF target of the pH table of Example 7 (homolog not stated); assay: pH dependence of binding, pH 6.5; ELISA per legend of FIGS. 6A-6B
[26] = target: IHF target of the pH table of Example 7 (homolog not stated); assay: pH dependence of binding, pH 5.5; ELISA per legend of FIGS. 6A-6B

B1: TRL1218 (antibody, V domains shown)
VH: QVQLLESGADMVQPGRSLRLSCAASGFNFRTYAMHWVRQAPGKGLEWVAVMSHDGYTKYYSDSVRGQFTISRDNSKNTLYLQMNNLRPDDTAIYYCARGLTGLSVGFDYWGQGTLVTVSS
VL: DIVLTQSASVSGSPGQSITISCTGTSSDVGGYNYVSWYQQHPGKAPKLMIYDVTTRPSGVSDRFSGSKSGNTASLTISGLQAEDEADYYCSSYSSGSTPALFGGGTQLTVL
Question: Which OD [1] does the source give for B1 here?
Answer: 0.06 OD

Question: And the OD [2]?
Answer: 0.09 OD

Question: What about the OD [3] of the same binder?
Answer: 0.04 OD

B2: TRL1230 (antibody, V domains shown)
VH: QVQLVQSGGGLVKPGGSLRLSCGASGFNLSSYSMNWVRQAPGKGLEWVSSISSRSSYIYYADSVQGRFTISRDNAKNSLYLQMNSLRAEDTAIYYCARVSPSTYYYYGMDVWGQGTTVTVSS
VL: DIVLTQPSSVSVSPGQTARITCSGDELPKQYAYWYQQKPGQAPVLVIYKDNERPSGIPERFSGSSSGTTVTLTISGVQAEDEADYYCQSADSSGTYVVFGGGTKLTVL
Question: How did the OD [1] turn out when B2 was run?
Answer: 0.07 OD

Question: And the OD [4]?
Answer: 0.1 OD

Question: What about the OD [2] of the same binder?
Answer: 0.3 OD

Question: What about the OD [3] of the same binder?
Answer: 0.06 OD

B3: TRL1215 (antibody, V domains shown)
VH: QVQLVESGTEVKNPGASVKVSCTASGYKFDEYGVSWVRQSPGQGLEWMGWISVYNGKTNYSQNFQGRLTLTTETSTDTAYMELTSLRPDDTAVYYCATDKNWFDPWGPGTLVTVSS
VL: DIVMTQSPSASGSPGQSITISCTGTNTDYNYVSWYQHHPGKAPKVIIYDVKKRPSGVPSRFSGSRSGNTATLTVSGLQTEDEADYYCVSYADNNHYVFGSGTKVTVL
Question: B3 was tested. Which OD [4] did it give?
Answer: 1.4 OD

B4: TRL1330 (antibody, V domains shown)
VH: QVQLVESGTEVKNPGASVKVSCTASGYKFDEYGVSWVRQSPGQGLEWMGWISVYNGKTNYSQNFQGRLTLTTETSTDTAYMELTSLRPDDTAVYYCATDKNWFDPWGPGTLVTVSS
VL: DIVLTQSPSASGSPGQSITISCTGTNTDYNYVSWYQHHPGKAPKVIIYDVKKRPSGVPSRFSGSRSGNTATLTVSGLQTEDEADYYCVSYADNNHYVFGSGTKVTVL
Question: Which EC50 [5] does the source give for B4 here?
Answer: 0.023 nM

Question: What about the EC50 [6] of the same binder?
Answer: 0.017 nM

B5: TRL1337 (antibody, V domains shown)
VH: QVQLLESGPGLVKPSETPSLTCTVSGGSIRSYYWSWIRQPPGKGLEWIGYIYYSGSTNYNPSLKSRVTISVDMSKNQFSLKLSSVTAADTAMYYCARVYGGSGSYDFDYWGQGTLVTVSS
VL: DIVLTQSPSASGSPGQSVTISCTGTSSDVGGYNYVSWYQQLPGKAPKLMIYEVTKRPSGVPDRFSGSKSGNTASLTVSGLQAEDEADYYCSSFAGSNNHVVFGGGTKLTVL
Question: Does B5 bind [7]?
Answer: no binding

Question: Does B5 bind [8]?
Answer: no binding

Question: Does B5 bind [9]?
Answer: no binding

Question: Does B5 bind [10]?
Answer: no binding

B6: TRL1335 (antibody, V domains shown)
VH: QVQLVESGAEVKKPGESLKISCKGSGYNFTSYWIGWVRQMPGKGLEWMGVIYPDDSDTRYSPSFKGQVTISADKSISTAFLQWSSLKASDTAVYHCARPPDSWGQGTLVTVSS
VL: DIVMTQSPATLSVSPGERATLSCRASQSVSSNLAWYQQKPGLAPRLLIVGASNRATGIPARFSGSGSGTEFTLTISSLQSEDFAFYYCQQYNNWPFTFGPGTKVDVKR
Question: Which results are given for B6?
Answer: binding result [11]: no binding; binding result [12]: no binding; binding result [13]: no binding

B7: TRL1087 (antibody, V domains shown)
VH: QVQLLESGPGLVRPSDTLSLTCTFSADLSTNAYWTWIRQPPGKGLEWIGYMSHSGGRDYNPSFNRRVTISVDTSKNQVFLRLTSVTSADTAVYFCVREVGSYYDYWGQGILVTVSS
VL: DIEMTQSPSSLSASVGDRITITCRASQGISTWLAWYQQKPGKAPKSLIFSTSSLHSGVPSKFSGSGSGTDFTLTITNLQPEDFATYYCQQKWETPYSFGQGTKLDMIR
Question: Which OD [1] does the source give for B7 here?
Answer: 0.06 OD

Question: What about the OD [4] of the same binder?
Answer: 0.14 OD

Question: What about the OD [2] of the same binder?
Answer: 0.06 OD

Question: And the OD [3]?
Answer: 0.06 OD

B8: TRL1068 (antibody, V domains shown)
VH: QVQLVESGPGLVKPSETLSLTCRVSGDSNRPSYWSWIRQAPGKAMEWIGYVYDSGVTIYNPSLKGRVTISLDTSKTRFSLKLTSVIAADTAVYYCARERFDRTSYKSWWGQGTQVTVSS
VL: DIVLTQAPGTLSLSPGDRATLSCRASQRLGGTSLAWYQHRSGQAPRLILYGTSNRATDTPDRFSGSGSGTDFVLTISSLEPEDFAVYYCQQYGSPPYTFGQGTTLDIK
Question: How did the Kd [14] turn out when B8 was run?
Answer: 2.7 nM

Question: And the Kd [15]?
Answer: 7 nM

Question: What about the Kd [16] of the same binder?
Answer: 1 nM

Question: What about the Kd [17] of the same binder?
Answer: 1 nM

Question: What about the Kd [18] of the same binder?
Answer: 350 nM

Question: What about the EC50 [19] of the same binder?
Answer: 0.011 nM

Question: And the EC50 [5]?
Answer: 0.015 nM

Question: What about the EC50 [20] of the same binder?
Answer: 0.011 nM

Question: And the EC50 [21]?
Answer: 5 nM

Question: What about the EC50 [6] of the same binder?
Answer: 0.01 nM

Question: And the Kd [22]?
Answer: 0.0236 nM

Question: And the Kd [23]?
Answer: 1.2 nM

Question: What about the Kd [24] of the same binder?
Answer: 0.007 nM

Question: What about the Kd [25] of the same binder?
Answer: 0.0076 nM

Question: And the Kd [26]?
Answer: 0.009 nM

B9: TRL1232 (antibody, V domains shown)
VH: QVQLVESGAEVKKPGALVKVSCKASGYTFSGYYMHWVRQAPGQGLEWMGWINPKSGGTKYAQKFQGRVTMTRDTSISTAYMELSRLRSDDTAVYFCARGGPSNLERFLERLQPRYSYDDKYAMDVWGQGTTVTVSS
VL: DIVMTQSPGTLSLSPGARATLSCRASQSVSSIYLAWYQQKPGQAPRLLIFGASSRATGIPDRFSGSGSGTDFTLTISRLEPEDFAVYYCQQYGSSPYTFGQGTKLEIKR
Question: Which results are given for B9?
Answer: OD [1]: 0.1 OD; OD [4]: 0.2 OD; OD [2]: 0.2 OD; OD [3]: 0.1 OD

B10: TRL1070 (antibody, V domains shown)
VH: QVQLVQSGGTLVQPGGSLRLSCAASGFTFSYYSMSWVRQAPGKGLEWVANIKHDGTERNYVDSVKGRFTISRDNSEKSLYLQMNSLRAEDTAVYYCAKYYYGAGTNYPLKYWGQGTRVTVSS
VL: DILMTQSPSSLSASVGDRVTITCRASQGIRNDLGWYQQKPGKAPKLLIYAASSLQSGVPSRFSGSGSGTDFTLTISSLQPEDFATYYCLQDYNYPLTFGGGTKVEIKR
Question: What does the source list for B10?
Answer: OD [4]: 0.3 OD; OD [3]: 0.11 OD

B11: TRL1216 (antibody, V domains shown)
VH: QVQLVESGGGVVQPGGSLRVSCAASAFSFRDYGIHWVRQAPGKGLQWVAVISHDGGKKFYADSVRGRFTISRDNSENTLYLQMNSLRSDDTAVYYCARLVASCSGSTCTTQPAAFDIWGPGTLVTVSS
VL: DIMLTQPPSVSVSPGQTARITCSGDALPKKYTYWYQQKSGQAPVLLIYEDRKRPSEIPERFSAFTSWTTATLTITGAQVRDEADYYCYSTDISGDIGVFGGGTKLTVL
Question: Which results are given for B11?
Answer: OD [4]: 0.5 OD; OD [3]: 0.06 OD
